Test results published in the domain aggregation screens of Martell et al. (2025).

Assay: soluble fraction after stress (log2 fold change); higher = more stays soluble; pooled small domains, quantitative proteomics
Conditions: stress: pH 4
Method in brief: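 After pH 4 stress, pooled custom libraries of small protein domains were quantified with high-throughput quantitative proteomics. Aggregation propensity is taken from the fold change in each domain's soluble amount following the acid stress. The scale is log2, where higher values mean more stayed soluble.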
In the case of “HMNGTEAIRRYIDQFASKHATTPRMLKLNERKQLIQELKNNGLLEIKKAVETVAQHLGISRASAYLYVKE”, the “soluble fraction (log2)” value is reported as at least 0.43. With “HMTEQLTLVGKTGVTTTDLRPSGKVEVDGKRYDAVADNGAFISKGAHIKVVRYVTGQVYVVPTD” the “soluble fraction (log2)” value was -0.146. In the case of “HMDGIGLRVRMIREGVGLTQKQLAEHLGMQRTALVQVEAGSRKLSASELIGVARFFNITVEQFLDPEK”, the “soluble fraction (log2)” value is reported as -1.72. For “HMSPFYALDEVDSFLDGVNVERLAALIARQAEQAQFLVVSHRRPMIGASTRTIGVTQARGAHTQVVGLP”, the “soluble fraction (log2)” value was -0.872. For “HMIFDPTTLPEKQLLVYGIISSHPGLNAKQISEMLTLKKSSIETAIKGLRKKEIIEYEGTTRNGG”, the “soluble fraction (log2)” value was -0.17. For “HMEATVGSRVRLARIGLTLTQKQLAQAVGVSANHLAMVERGSKHASEDLLQRIATATHTTYEWLMGTSEHQ”, the “soluble fraction (log2)” value was 0.174. In the case of “HMGSIDYLVGSRLRQYRRLRGYSLIEFSAMLHRSKSAISKYERGEVSIDLRTLNEMARLLDIPLSGLLL”, the “soluble fraction (log2)” value is reported as -0.283. In the case of “HMEMGNKIKELRTKLGITQEELSKTLNVSSQAVSKWENGGLPDLELIPEIAKYFNVTTDYLFDIK”, the “soluble fraction (log2)” value is reported as -0.723. With “HMAGDDEIEKIAQDILAAWPDKVAAYQAGNKGLMGLFMGELMKKSQGKANPKVASGIIQKLLD” the “soluble fraction (log2)” value was -0.455. With “HMSSRNLIIFYDSPQAENALLATAERYGAILLHHYRNLHGIAVAIPADKDMAQAVTYFSRQPGVRQV” the “soluble fraction (log2)” value was 0.103. With “HMGRYDWIEQIDDPVLAERLKHLTEDDLELLTRYVFEDATQKELASQYGIGQQSVSKRLKKLKSFLTK” the “soluble fraction (log2)” value was -0.683. With “HMSVLQGLIESFKAGDRNLYEVAERLNVTEPFLAEALKDYRARFPKGVQVDNFWISFRPYLTIAEV” the “soluble fraction (log2)” value was -0.886. With “HMTPKVAVPSFVGWKFEDVERQLGTMGLIRGKVDNHPSEEYSEGRVIWQSVLGEVEKGKVIDFWVSTGPE” the “soluble fraction (log2)” value was -0.776. In the case of “HMENEFEAYSDGSSIQLNDPSKATYVVFDRQGRLLHLFQNHSLSSLSIERKNQILIITRETADGVSVKKIV”, the “soluble fraction (log2)” value is reported as -0.167. In the case of “HMQRADYLILYYIKMQAEQHPDSKVYLADLAAVMGLKVTELSKAVEKLQDNGFVAWKTDREAGRTYVELS”, the “soluble fraction (log2)” value is reported as -0.89. With “HMPPALTELLSVRTNASGTIDYLLPDRSAGLRVENGSKYSGMVPDSIYRLVAIYEIKDAKEPSAYIYTI” the “soluble fraction (log2)” value was -0.223. With “HMRQQSLHSLYRDHHSWLQNWLRRQLGNTWDAADLSQDTFIKVLASSQSVAEIREPRAYLLTVGKRL” the “soluble fraction (log2)” value was -0.0586. For “HMSQSMEVLYTDLTDKDAAAIVEKLEEEKIPYQLEDQGTTILVPPGVKYTTRLKLAAEDLPKG”, the “soluble fraction (log2)” value was 0.178. In the case of “HMKRVVFFNGISWYHRTKELLDDMTTKYGKKGGFATPEEAEKSYWEYEERYKDRQRELQVAYLKN”, the “soluble fraction (log2)” value is reported as -0.913. With “HMINGTITFYDDTTLKGELSSLDTKYLFIIPNGLVMPEKIAVSDIEYFNLDNGITLIQDGISKQTY” the “soluble fraction (log2)” value was -1.11. With “HMLIPTISVTKEGQLRFENIPVSWEELGTRLRDVSDLDKIKIYADAESDALTISEIMKTAANVGIVQFVLV” the “soluble fraction (log2)” value was -1.13. For “HMTVVLPGESLTVNIIQEGKELGQGVGYLDDGTMVVIEDGRRYIDQTIEVTVTRVLQTVAGRMIFAQLT”, the “soluble fraction (log2)” value was -0.886. For “HMRTSPGADYEKTYYTIQSGDNLGAIAEKMGVSVADLKDWNDISGTKIYAGKKLVIYVKKGST”, the “soluble fraction (log2)” value was -0.209. For “HMRRPRGVFNLVPGKRFGFITPDGGGEDVFAHLANVRAGHVAEDRNAVEYGIGRGPDGRDQAVDIVPMP”, the “soluble fraction (log2)” value was 0.00891. In the case of “HMEKDRDKRIRKRVLTALKRNDKKMTDKAFALLTSRIRDESILDQEVLKLIGYVGDRTTIDSKDINIVVAE”, the “soluble fraction (log2)” value is reported as 0.0457. In the case of “HMSAPQKWDGSLQDFIRFKQEAKTLMDNIPNKRLALNAILETISDGKMRKRLAKYDGPESALKSLELEFGN”, the “soluble fraction (log2)” value is reported as 0.0286. For “HMNYTALLNNFSENMKKRRVELSLSQKELASIVGVSVRTIQNYENKKTIPTSAVMESISIALDMGLEKMID”, the “soluble fraction (log2)” value was 0.04. For “HMKERLLDPYKDFIVNYLQKYPYTPAAVMHDKLKESYPDFPKVDPKTIYNFVMLLRRDFNIPKV”, the “soluble fraction (log2)” value was -0.406. For “HMQGDHELSQRILSYLSEQGGSSPLTDKASPEEIYRIFRVSKKKYKQALGNLYKSKSIIILADKIQLL”, the “soluble fraction (log2)” value was 0.195. In the case of “HMTSHYTVLGVKETDTIEMIRTHYRKLILQFHPDKNQHLTEEERKKLEVKVLQIREAYEKIKKEK”, the “soluble fraction (log2)” value is reported as -0.816.
